The chains are these.
T1: GIPR I221M (Homo sapiens, UniProt P48546, I221M)
T1 construct: host or cells: HEK293
T1 sequence (P48546 22-466 I221M): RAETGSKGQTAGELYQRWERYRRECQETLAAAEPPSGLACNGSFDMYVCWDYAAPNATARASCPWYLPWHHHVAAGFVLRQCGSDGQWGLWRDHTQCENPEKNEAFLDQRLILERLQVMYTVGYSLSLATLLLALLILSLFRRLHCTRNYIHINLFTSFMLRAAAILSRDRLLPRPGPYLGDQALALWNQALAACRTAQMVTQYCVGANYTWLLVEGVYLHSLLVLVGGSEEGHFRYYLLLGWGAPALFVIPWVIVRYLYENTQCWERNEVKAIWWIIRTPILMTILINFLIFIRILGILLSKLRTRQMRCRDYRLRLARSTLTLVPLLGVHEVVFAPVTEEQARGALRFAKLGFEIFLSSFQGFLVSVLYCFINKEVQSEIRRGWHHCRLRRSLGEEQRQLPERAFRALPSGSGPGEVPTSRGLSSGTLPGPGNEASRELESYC

T2: GIPR R190Q (Homo sapiens, UniProt P48546, R190Q)
T2 construct: host or cells: HEK293
T2 sequence (P48546 22-466 R190Q): T1 sequence (P48546 22-466 I221M) with R169Q, M200I

T3: GIPR R183Q (Homo sapiens, UniProt P48546, R183Q)
T3 construct: host or cells: HEK293
T3 sequence (P48546 22-466 R183Q): T1 sequence (P48546 22-466 I221M) with R162Q, M200I

T4: GIPR P195R (Homo sapiens, UniProt P48546, P195R)
T4 construct: host or cells: HEK293
T4 sequence (P48546 22-466 P195R): T1 sequence (P48546 22-466 I221M) with P174R, M200I

T5: GIPR A185V (Homo sapiens, UniProt P48546, A185V)
T5 construct: host or cells: HEK293
T5 sequence (P48546 22-466 A185V): T1 sequence (P48546 22-466 I221M) with A164V, M200I

T6: GIPR A207V (Homo sapiens, UniProt P48546, A207V)
T6 construct: host or cells: HEK293
T6 sequence (P48546 22-466 A207V): T1 sequence (P48546 22-466 I221M) with A186V, M200I

T7: GIPR W233* (Homo sapiens, UniProt P48546)
T7 construct: host or cells: HEK293
T7 sequence (P48546 22-232 limits assumed): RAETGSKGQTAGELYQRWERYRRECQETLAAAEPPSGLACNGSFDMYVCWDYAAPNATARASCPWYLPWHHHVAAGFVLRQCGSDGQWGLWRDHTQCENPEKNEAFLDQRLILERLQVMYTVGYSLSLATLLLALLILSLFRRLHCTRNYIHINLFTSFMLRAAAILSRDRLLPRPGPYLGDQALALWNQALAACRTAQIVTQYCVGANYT

B1: I221M (protein)
chain: T1 sequence (P48546 22-466 I221M)
B2: R190Q (protein)
chain: T1 sequence (P48546 22-466 I221M) with R169Q, M200I
B3: R183Q (protein)
chain: T1 sequence (P48546 22-466 I221M) with R162Q, M200I
B4: A207V (protein)
chain: T1 sequence (P48546 22-466 I221M) with A186V, M200I
B5: P195R (protein)
chain: T1 sequence (P48546 22-466 I221M) with P174R, M200I
B6: A185V (protein)
chain: T1 sequence (P48546 22-466 I221M) with A164V, M200I
B7: W233* (protein)
chain: T7 sequence (P48546 22-232 limits assumed)

Where a chain is given by its changes, count along the chain named. Names may count otherwise.

Data on 7 molecules can be found in publication PMC11272584 (Nature Metabolism, 2024).

The first assay concerns the target T1, GIPR I221M. Description: cAMP accumulation. In kind it is cell-based.
Settings: not given
Consider B1, for which the “Efficacy at 100pmol (cAMP)” value stood at 0.8221.

A further assay concerns the target T2, GIPR R190Q. The experiment in a line: cAMP accumulation. In kind it is cell-based.
Settings: not given
For orientation: cAMP levels reflect the balance of adenylyl cyclase and phosphodiesterase activity.
Take B2: the “Efficacy at 100pmol (cAMP)” value is 0.008847.

Another assay has as its system GIPR variants (groups). Description: β-arrestin 2 recruitment (BRET).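 Also: BRET readout of β-arrestin 2 recruitment in transiently transfected HEK293 cells expressing WT GIPR or a GIPR variant plus GPCR kinase 2, Rluc8 donor and citrine acceptor.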 Particulars: arr part of the in vitro group. (In general: Arrestin recruitment assays detect the binding of arrestin to an activated receptor.)
On to B3, for which the “In vitro groups (β-arrestin)” value is reported as “LoF_arr”.
On the same count and under the same terms, the result for B1 reads “LoF_arr”; that for B2, “LoF_arr”; that for B4, “WT-like_arr”.
Still for that read-out and setting: the result for B5 reads “WT-like_arr”; that for B6, “WT-like_arr”; that for B7, “LoF_arr”.

The assay is the same for the next values; noted with them: in vitro β-arrestin recruitment per GIPR variant.
Take B3: the “Beta, Barr” value came to 0.03853.
Same read-out and setting: the result for B1 reads 0.1962.
Still for that read-out and setting: the result for B2 reads 0.1131.
Take B4: the “Beta, Barr” value was 0.8334.
The same measure, in the same setting: the result for B5 reads 0.8561.
Same read-out and setting: the result for B6 reads 0.8905.

The next assay addresses T3, GIPR R183Q. Description: cAMP accumulation. Type of assay: cell-based.
Settings: not given
On to B3, for which the “Efficacy at 100pmol (cAMP)” value is recorded as 0.

For the next assay, the target named is T4, GIPR P195R. The experiment in a line: cAMP accumulation.
Settings: not given
In kind it is cell-based.
In the case of B5, the “Efficacy at 100pmol (cAMP)” value is listed as 0.117.

Another assay concerns the target T5, GIPR A185V. The experiment in a line: cAMP accumulation. Type of assay: cell-based.
Settings: not given
For the molecule B6, the “Efficacy at 100pmol (cAMP)” value came to 0.2646.

For a further assay, the target named is T6, GIPR A207V. The experiment in a line: cAMP accumulation. Type of assay: cell-based.
Settings: not given
Consider B4, for which the “Efficacy at 100pmol (cAMP)” value is 0.1592.

The target of the next assay is T7, GIPR W233*. Description: cAMP accumulation. Type of assay: cell-based.
Settings: not given
Turning to B7, the “Efficacy at 100pmol (cAMP)” value was determined as 0.06458.

The next assay concerns GIPR variants (groups). Description: cAMP accumulation. In kind it is cell-based, human. The conditions noted are these: cAMP part of the in vitro group.
For the molecule B3, the “In vitro groups (cAMP)” value was “LoF_camp”.
Still for that read-out and setting: the result for B1 reads “WT-like_camp”; that for B2, “LoF_camp”.
Same read-out and setting: the result for B4 reads “LoF_camp”.
The same measure, in the same setting: the result for B5 reads “LoF_camp”; that for B6, “LoF_camp”; that for B7, “LoF_camp”.

Staying with this assay, now noted: cAMP production compared with WT.
The molecule B3 had a percentage_camp below 50% cAMP.
The same measure, in the same setting: the result for B1 reads above 50% cAMP.
Regarding B2, the percentage_camp was below 50% cAMP.
Take B4: the percentage_camp was below 50% cAMP.
In turn, B5 yielded a percentage_camp below 50% cAMP.
The same measure, in the same setting: the result for B6 reads below 50% cAMP; that for B7, below 50% cAMP.

Staying with this assay, now noted: in vitro cAMP production per GIPR variant.
B3: the “Beta, cAMP” value was 0.
With B1, the “Beta, cAMP” value turned out to be 0.8221.
As to B2, the “Beta, cAMP” value is given as 0.008847.
Still for that read-out and setting: the result for B4 reads 0.1592; that for B5, 0.117; that for B6, 0.2646.
